In the supplement of paper PMC10567573:

B1: CASP6 (parent)
chain: TCADRDNLTRRFSDLGFEVKCFND

Variants of: B1
Assay: protein stability index of a GFP-peptide fusion (GPS, HEK-293T) (PSI 1-6); higher = more stable
Settings: c terminus: a fixed tail appended
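Further: lentivirally expressed fusions sorted by FACS into six bins by GFP to DsRed ratio, PSI derived from sequencing read proportions per bin multiplied by bin number.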

For TCADRDNLTRRFSDLGFEKKCFND [V19K], which protein stability index is on record?
Its protein stability index is 3.94.

Which protein stability index does the source give for TCADRDNLTRRFSDLGFELKCFND [V19L] here?
The protein stability index was 2.57.

For TCADRDNLTRRFSDLGFEPKCFND [V19P], which protein stability index is on record?
Its protein stability index is 4.38.

Which protein stability index does the source give for TCADRDNLTRRFSDLGFENKCFND [V19N] here?
Its protein stability index is 3.9.

For TCADRDNLTRRFSDLGFEYKCFND [V19Y], which protein stability index is on record?
Its protein stability index is 3.5.

For TCADRDNLTRRFSDLGFERKCFND [V19R], which protein stability index is on record?
Its protein stability index is 3.48.

Which protein stability index does the source give for TCADRDNLTRRFSDLGFESKCFND [V19S] here?
Its protein stability index is 3.8.

For TCADRDNLTRRFSDLGFEHKCFND [V19H], which protein stability index is on record?
The protein stability index was 3.36.

With TCADRDNLTRRFSDLGFEAKCFND [V19A] as the variant, how does the protein stability index read?
The protein stability index was 3.62.

Which protein stability index does the source give for TCADRDNLTRRFSDLGFEDKCFND [V19D] here?
Its protein stability index is 4.93.

Which protein stability index does the source give for TCADRDNLTRRFSDLGFEGKCFND [V19G] here?
Its protein stability index is 4.08.

Which protein stability index does the source give for TCADRDNLTRRFSDLGFEEKCFND [V19E] here?
The protein stability index was 4.31.

With TCADRDNLTRRFSDLGFEQKCFND [V19Q] as the variant, how does the protein stability index read?
The protein stability index was 3.85.

For TCADRDNLTRRFSDLGFEFKCFND [V19F], which protein stability index is on record?
The protein stability index was 2.69.

For TCADRDNLTRRFSDLGFEIKCFND [V19I], which protein stability index is on record?
Its protein stability index is 3.44.

For TCADRDNLTRRFSDLGFETKCFND [V19T], which protein stability index is on record?
The protein stability index was 4.24.

For TCADRDNLTRRFSDLGFEMKCFND [V19M], which protein stability index is on record?
Its protein stability index is 3.49.

For TCADRDNLTRRFSDLGFECKCFND [V19C], which protein stability index is on record?
The protein stability index was 1.95.

Which protein stability index does the source give for TCADRDNLTRRFSDLGFEWKCFND [V19W] here?
The protein stability index was 2.76.

Which protein stability index does the source give for TCADRDNLTRRFHDLGFEVKCFND [S13H] here?
The protein stability index was 2.88.

Which protein stability index does the source give for TCADRDNLTRRFDDLGFEVKCFND [S13D] here?
Its protein stability index is 3.83.

For TCADRDNLTRRFVDLGFEVKCFND [S13V], which protein stability index is on record?
The protein stability index was 2.32.

With TCADRDNLTRRFQDLGFEVKCFND [S13Q] as the variant, how does the protein stability index read?
The protein stability index was 3.65.

For TCADRDNLTRRFNDLGFEVKCFND [S13N], which protein stability index is on record?
The protein stability index was 3.44.

Which protein stability index does the source give for TCADRDNLTRRFWDLGFEVKCFND [S13W] here?
The protein stability index was 2.36.

For TCADRDNLTRRFIDLGFEVKCFND [S13I], which protein stability index is on record?
Its protein stability index is 2.75.

With TCADRDNLTRRFTDLGFEVKCFND [S13T] as the variant, how does the protein stability index read?
Its protein stability index is 2.58.

Which protein stability index does the source give for TCADRDNLTRRFYDLGFEVKCFND [S13Y] here?
The protein stability index was 2.7.

With TCADRDNLTRRFGDLGFEVKCFND [S13G] as the variant, how does the protein stability index read?
Its protein stability index is 3.

With TCADRDNLTRRFLDLGFEVKCFND [S13L] as the variant, how does the protein stability index read?
Its protein stability index is 2.71.

For TCADRDNLTRRFRDLGFEVKCFND [S13R], which protein stability index is on record?
The protein stability index was 2.98.

With TCADRDNLTRRFPDLGFEVKCFND [S13P] as the variant, how does the protein stability index read?
Its protein stability index is 2.86.

With TCADRDNLTRRFKDLGFEVKCFND [S13K] as the variant, how does the protein stability index read?
Its protein stability index is 3.45.

Which protein stability index does the source give for TCADRDNLTRRFADLGFEVKCFND [S13A] here?
The protein stability index was 3.46.

With TCADRDNLTRRFEDLGFEVKCFND [S13E] as the variant, how does the protein stability index read?
Its protein stability index is 3.84.

With TCADRDNLTRRFMDLGFEVKCFND [S13M] as the variant, how does the protein stability index read?
The protein stability index was 2.71.

Which protein stability index does the source give for TCADRDNLTRRFCDLGFEVKCFND [S13C] here?
Its protein stability index is 2.67.

Which protein stability index does the source give for TCADRDNLTRRFFDLGFEVKCFND [S13F] here?
The protein stability index was 2.7.

Which protein stability index does the source give for TCADRDNLTRRFSDLEFEVKCFND [G16E] here?
The protein stability index was 3.83.

Which protein stability index does the source give for TCADRDNLTRRFSDLFFEVKCFND [G16F] here?
Its protein stability index is 2.03.

For TCADRDNLTRRFSDLWFEVKCFND [G16W], which protein stability index is on record?
Its protein stability index is 1.93.

Which protein stability index does the source give for TCADRDNLTRRFSDLHFEVKCFND [G16H] here?
Its protein stability index is 2.84.

Which protein stability index does the source give for TCADRDNLTRRFSDLMFEVKCFND [G16M] here?
The protein stability index was 2.14.

Which protein stability index does the source give for TCADRDNLTRRFSDLDFEVKCFND [G16D] here?
Its protein stability index is 3.33.

For TCADRDNLTRRFSDLTFEVKCFND [G16T], which protein stability index is on record?
Its protein stability index is 3.04.

Which protein stability index does the source give for TCADRDNLTRRFSDLSFEVKCFND [G16S] here?
The protein stability index was 3.26.

With TCADRDNLTRRFSDLQFEVKCFND [G16Q] as the variant, how does the protein stability index read?
Its protein stability index is 3.31.

For TCADRDNLTRRFSDLLFEVKCFND [G16L], which protein stability index is on record?
The protein stability index was 1.89.

Which protein stability index does the source give for TCADRDNLTRRFSDLPFEVKCFND [G16P] here?
Its protein stability index is 3.54.

With TCADRDNLTRRFSDLAFEVKCFND [G16A] as the variant, how does the protein stability index read?
Its protein stability index is 2.99.

With TCADRDNLTRRFSDLKFEVKCFND [G16K] as the variant, how does the protein stability index read?
Its protein stability index is 2.68.

For TCADRDNLTRRFSDLRFEVKCFND [G16R], which protein stability index is on record?
The protein stability index was 3.13.

Which protein stability index does the source give for TCADRDNLTRRFSDLNFEVKCFND [G16N] here?
Its protein stability index is 3.61.

With TCADRDNLTRRFSDLIFEVKCFND [G16I] as the variant, how does the protein stability index read?
Its protein stability index is 1.92.

With TCADRDNLTRRFSDLCFEVKCFND [G16C] as the variant, how does the protein stability index read?
Its protein stability index is 3.18.

With TCADRDNLTRRFSDLYFEVKCFND [G16Y] as the variant, how does the protein stability index read?
Its protein stability index is 2.27.

With TCADRDNLTRRFSDLVFEVKCFND [G16V] as the variant, how does the protein stability index read?
Its protein stability index is 1.92.

With TCADRDNLTFRFSDLGFEVKCFND [R10F] as the variant, how does the protein stability index read?
Its protein stability index is 2.98.

For TCADRDNLTPRFSDLGFEVKCFND [R10P], which protein stability index is on record?
Its protein stability index is 3.39.

With TCADRDNLTKRFSDLGFEVKCFND [R10K] as the variant, how does the protein stability index read?
The protein stability index was 3.75.

Which protein stability index does the source give for TCADRDNLTLRFSDLGFEVKCFND [R10L] here?
Its protein stability index is 3.07.

Which protein stability index does the source give for TCADRDNLTERFSDLGFEVKCFND [R10E] here?
The protein stability index was 3.83.

Which protein stability index does the source give for TCADRDNLTYRFSDLGFEVKCFND [R10Y] here?
The protein stability index was 2.65.

With TCADRDNLTIRFSDLGFEVKCFND [R10I] as the variant, how does the protein stability index read?
Its protein stability index is 2.48.

Which protein stability index does the source give for TCADRDNLTHRFSDLGFEVKCFND [R10H] here?
Its protein stability index is 3.16.

With TCADRDNLTNRFSDLGFEVKCFND [R10N] as the variant, how does the protein stability index read?
The protein stability index was 3.56.

For TCADRDNLTVRFSDLGFEVKCFND [R10V], which protein stability index is on record?
Its protein stability index is 3.2.

For TCADRDNLTTRFSDLGFEVKCFND [R10T], which protein stability index is on record?
Its protein stability index is 3.61.

With TCADRDNLTQRFSDLGFEVKCFND [R10Q] as the variant, how does the protein stability index read?
Its protein stability index is 3.33.

For TCADRDNLTSRFSDLGFEVKCFND [R10S], which protein stability index is on record?
The protein stability index was 3.29.

For TCADRDNLTGRFSDLGFEVKCFND [R10G], which protein stability index is on record?
The protein stability index was 3.48.

With TCADRDNLTMRFSDLGFEVKCFND [R10M] as the variant, how does the protein stability index read?
The protein stability index was 2.83.

With TCADRDNLTWRFSDLGFEVKCFND [R10W] as the variant, how does the protein stability index read?
The protein stability index was 2.17.

Which protein stability index does the source give for TCADRDNLTRRFSDLGFRVKCFND [E18R] here?
Its protein stability index is 3.14.

With TCADRDNLTRRFSDLGFDVKCFND [E18D] as the variant, how does the protein stability index read?
The protein stability index was 3.86.

Which protein stability index does the source give for TCADRDNLTRRFSDLGFIVKCFND [E18I] here?
The protein stability index was 2.65.

For TCADRDNLTRRFSDLGFNVKCFND [E18N], which protein stability index is on record?
The protein stability index was 3.44.

With TCADRDNLTRRFSDLGFYVKCFND [E18Y] as the variant, how does the protein stability index read?
The protein stability index was 2.29.

With TCADRDNLTRRFSDLGFPVKCFND [E18P] as the variant, how does the protein stability index read?
Its protein stability index is 3.49.

Which protein stability index does the source give for TCADRDNLTRRFSDLGFHVKCFND [E18H] here?
Its protein stability index is 2.48.

With TCADRDNLTRRFSDLGFVVKCFND [E18V] as the variant, how does the protein stability index read?
Its protein stability index is 2.82.

For TCADRDNLTRRFSDLGFQVKCFND [E18Q], which protein stability index is on record?
Its protein stability index is 3.1.

With TCADRDNLTRRFSDLGFWVKCFND [E18W] as the variant, how does the protein stability index read?
The protein stability index was 2.55.

With TCADRDNLTRRFSDLGFGVKCFND [E18G] as the variant, how does the protein stability index read?
Its protein stability index is 2.87.

For TCADRDNLTRRFSDLGFFVKCFND [E18F], which protein stability index is on record?
The protein stability index was 1.78.

Which protein stability index does the source give for TCADRDNLTRRFSDLGFTVKCFND [E18T] here?
The protein stability index was 3.05.

Which protein stability index does the source give for TCADRDNLTRRFSDLGFCVKCFND [E18C] here?
The protein stability index was 2.76.

With TCADRDNLTRRFSDLGFSVKCFND [E18S] as the variant, how does the protein stability index read?
The protein stability index was 2.89.

For TCADRDNLTRRFSDLGFMVKCFND [E18M], which protein stability index is on record?
The protein stability index was 2.22.

For TCADRDNLTRRFSDLGFAVKCFND [E18A], which protein stability index is on record?
Its protein stability index is 3.25.

For TCADRDNLTRRFSDLGFKVKCFND [E18K], which protein stability index is on record?
Its protein stability index is 3.3.

With TCADRDNLTRRFSDLGLEVKCFND [F17L] as the variant, how does the protein stability index read?
The protein stability index was 4.16.

Which protein stability index does the source give for TCADRDNLTRRFSDLGWEVKCFND [F17W] here?
The protein stability index was 2.44.

With TCADRDNLTRRFSDLGTEVKCFND [F17T] as the variant, how does the protein stability index read?
The protein stability index was 3.75.
